# Data from patent US20150299314A1 (TORAY INDUSTRIES, published 2015).
# Molecular target: T1, CAPRIN-1 protein expressed on the cell surface of human cancer cells (human, UniProt Q14444 2-709)
# T1 sequence (looked up): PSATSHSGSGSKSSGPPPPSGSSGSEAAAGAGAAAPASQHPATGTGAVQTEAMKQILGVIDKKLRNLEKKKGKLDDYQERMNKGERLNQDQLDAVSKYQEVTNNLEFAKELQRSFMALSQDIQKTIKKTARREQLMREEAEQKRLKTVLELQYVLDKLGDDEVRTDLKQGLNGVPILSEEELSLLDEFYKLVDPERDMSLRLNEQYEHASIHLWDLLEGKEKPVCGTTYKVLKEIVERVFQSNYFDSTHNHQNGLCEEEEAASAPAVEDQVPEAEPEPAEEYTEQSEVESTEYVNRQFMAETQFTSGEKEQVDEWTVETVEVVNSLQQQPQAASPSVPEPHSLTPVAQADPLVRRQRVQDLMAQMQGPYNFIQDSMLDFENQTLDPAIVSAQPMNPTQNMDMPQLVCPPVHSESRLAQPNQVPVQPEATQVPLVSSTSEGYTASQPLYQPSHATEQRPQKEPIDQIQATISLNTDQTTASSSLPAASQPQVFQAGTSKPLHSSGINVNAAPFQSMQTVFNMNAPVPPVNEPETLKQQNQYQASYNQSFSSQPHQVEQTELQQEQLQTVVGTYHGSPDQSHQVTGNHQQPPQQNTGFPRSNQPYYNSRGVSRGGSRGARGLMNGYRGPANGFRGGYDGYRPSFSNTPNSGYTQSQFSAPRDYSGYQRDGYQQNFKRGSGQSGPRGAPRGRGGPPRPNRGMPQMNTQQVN
# Assay: cell-based or functional assay
Binder,"ADCC activity on TGBC14TKB, method as in Example 12 [%]","ADCC activity (cytotoxicity, 51Cr release) on TGBC14TKB, antibody 5 ug/mL, human NK cells [%]","cytotoxicity (ADCC, 51Cr release) on TGBC14TKB, human NK cells [%]"
"human-mouse chimeric anti-CAPRIN-1 antibody #28 (antibody, human IgG1, kappa, V domains shown) VH: GPDLVKPGASVKISCKASGYSFTAYYMHWVKQSHGKSLEWIGRVNPNNGGTTYNQKFKGKAILTVDKSSSTAYMELRSLTFEDSAVYYCARRIYYGYFDYWGQGTTVTVSS VL: AFFAVSLGQRATISCKASQSVDYDGDSYMNWYQQKPGQPPKLLIYVASNLESGVPARFSGSGSGTDFTLNIHPVEEEDAATYYCQQSNEDPYTFGGGTKLEIKQ",≥ 20,–,–
"human-mouse chimeric anti-CAPRIN-1 antibody #25 (antibody, human IgG1, kappa, V domains shown) VH: GPGLVQPSQSLSITCTVSGFSLTTYDLHWVRQSPGKGLEWLGVIWSGGSTDYNAAFISRLSISKDNSKSQVFFKMNSLQANDTAIYYCARNYGYSAWFAYWGQGTLVTVSA VL: DVLMTQTPLSLPVSLGDQASISCRSSQSIVHSNGNTYLEWYLQKPGQSPKLLIYKVSNRFSGVPDRFSGSGSGTDFTLKISRVEAEDLGVYYCFQGSHVPLTFGAGTKLELKR",≥ 20,–,–
"human-mouse chimeric anti-CAPRIN-1 antibody #27 (antibody, human IgG1, kappa, V domains shown) VH: GGGLVQPGGSMRLSCVASGFTFSNSWFNWVRQSPEKGLEWVAEIRLTSDNYAIYYAESVKGRFTISRDDSKSSVYLQMNNLRAEDTGIYYCTRPETARATFAYWGQGTTVTVSS VL: DVLMTQTPLSLPVSLGDQASISCRSSQSIVHSNGNTYLEWYLQKPGQSPKVLIYKVFNRFSGVPDRFSGSGSGTDFTLKISRVEAEDLGVYYCFQGSHVPRTFGGGTKLNQTG",≥ 20,–,–
"human-mouse chimeric anti-CAPRIN-1 antibody #23 (antibody, human IgG1, kappa, V domains shown) VH: GGGLVKPGGSLKLSCAASGFTFSSYGMSWVRQTPEKRLEWVATISSGGSYTYYPDSVKGRFTISRDNAKNTLYLQMSSLRSEDTAMYYCASLASYYFDYWGQGTTLTVSS VL: GARCDVQMIQSPSSLSASLGDIVTMTCQASQGTSINLNWFQQKPGKAPKLLIYGASSLEDGVPSRFSGSCFGTDFTLTISSLEDEDMATYFCLQHSYLPPLTFGAGTKLELKR",≥ 20,–,–
"human-mouse chimeric anti-CAPRIN-1 antibody #24 (antibody, human IgG1, kappa, V domains shown) VH: GGGLVKPGGSLKLSCAASGFTFSSYGMSWVRQTPEKRLEWVATISSGGSYTYYPDSVKGRFTISRDNAKNTLYLQMSSLRSEDTAMYYCASLASYYFDYWGQGTTLTVSS VL: not shown",≥ 20,–,–
"human-mouse chimeric anti-CAPRIN-1 antibody #36 (antibody, human IgG1, kappa) heavy: not shown light: QDELSNPVTSGESVSISCRSSKSLLYKDGKTYLNWFLQRPGQSPQLLIYLMSTRASGVSDRFSGSGSGTDFTLEISRVKAEDVGVYYCQQLVEDPLTFGAGTKLELKRTVAAPSVFIFPPSDEQLKSGTASVVCLLNNFYPREAKVQWKVDNALQSGNSQESVTEQDSKDSTYSLSSTLTLSKADYEKHKVYACEVTHQGLSSPVTKSFNRGEC",–,≥ 20,–
human-mouse chimeric anti-CAPRIN-1 antibody #30 (antibody) heavy: not shown light: DVQITQSPSYLAASPGETITINCRASKSISKYLAWYQEKPGKTNKLLIYSGSTLQSGIPSRFSGSGSGTDFTLTISSLEPEDFAMYYCQQHNEYPYTFGGGTKLEIKRTVAAPSVFIFPPSDEQLKSGTASVVCLLNNFYPREAKVQWKVDNALQSGNSQESVTEQDSKDSTYSLSSTLTLSKADYEKHKVYACEVTHQGLSSPVTKSFNRGEC,–,≥ 20,–
"human-mouse chimeric anti-CAPRIN-1 antibody #31 (antibody, human IgG1, kappa) heavy: not shown light: DVQITQSPSYLAASPGETITINCRASKSISKYLAWYQEKPGKTNKLLIYSGSTLQSGIPSRFSGSGSGTDFTLTISSLEPEDFAMYYCQQHNEYPWTFGGGTKLEIKRTVAAPSVFIFPPSDEQLKSGTASVVCLLNNFYPREAKVQWKVDNALQSGNSQESVTEQDSKDSTYSLSSTLTLSKADYEKHKVYACEVTHQGLSSPVTKSFNRGEC",–,≥ 20,–
"human-mouse chimeric anti-CAPRIN-1 antibody #26 (antibody, human IgG1, kappa) heavy: not shown light: PASSSDVLMTQTPLSLPVRLGDQSSISCRSSQSIVHSNGNTYLEWYLQKPGQSPKLLIYKVSNRFSGVPDRFSGSGSGTDFTLKISRVEPEDLGVYYCFQGSHVPYTSEGDQAEIKLATVAAPSVFIFPPSDEQLKSGTASVVCLLNNFYPREAKVQWKVDNALQSGNSQESVTEQDSKDSTYSLSSTLTLSKADYEKHKVYACEVTHQGLSSPVTKSFNRGEC",≥ 20,–,–
"human-mouse chimeric anti-CAPRIN-1 antibody #34 (antibody, human IgG1, kappa, V domains shown) VH: GAELVRPGTSVKVSCKASVYAFTNYLIEWVKQRPGQGLEWIGVINPKSGGTKYNEKFRGKATLTADKSSSTAYMQLSSLTSGDSAVYFCAITGTDYWGQGTTLTVSS VL: QGTRCDIQMTQTTSSLSASLGDRVTISCSASQGINNYLNWYQQKPDGTVKLLIYYTSSLRSGVPSRFSGSGSGTDYSLTISNLEPEDVATYYCQQYSKLPRTFGGGTKLEIKR",–,≥ 20,–
"human-mouse chimeric anti-CAPRIN-1 antibody #29 (antibody, human IgG1, kappa) heavy: not shown light: GTCGDIVMSQSPSSLAVSAGEKVTMSCKSSQSLLNSRTRKNYLAWVQHKPGQSPRLLIYWASTRESGVPDRFTGSGSGTDFTLTISSVQAEDLAVYYCRQSYNLVTFGAGPSTVAAPSVFIFPPSDEQLKSGTASVVCLLNNFYPREAKVQWKVDNALQSGNSQESVTEQDSKDSTYSLSSTLTLSKADYEKHKVYACEVTHQGLSSPVTKSFNRGEC",≥ 20,–,–
"human-chicken chimeric antibody #2 (antibody, human IgG1, kappa, V domains shown) VH: AVTLDESGGGLQTPGGGLSLVCKASGFTFSSFDMGWVRQAPGKGLEFVAQINDAGSRTWYATAVKGRATISRDNGQTTVRLQLNNLRAEDTGTYYCTRGSGYVGAGAIDAWGHGTEVIVSA VL: AALTQPSSVSANPGETVKITCSGGSGYYGWYQQQKSPGSAPVTVIYQNDKRPSDIPSRFSGSGSGSTNTLTITGVQAEDEAVYFCGRYDSTDSGIFGAGTTLTVLT",–,–,≥ 15
